This note sets out measurements from a protein production outcome set (Wang et al. 2014).

The data set in a line: label from the status in PepcDB records.
On to “MNGQAKTISASAKGIPQPSNNNFVDFTMSYNGTTKVMSITYGGQTWTQNVSSFIGTNQAMSFSIAASTGAQMNLQQLRNVNFTYTVAQGTVIANYVDEQGNTIAQQETTSGDIDTPYVTSQKTIPGYTFKASNGAATSGNYAANDQTVNYVYTRNQGSIDVTYIDQTTGQTLSKKDLSGGTGDSSNYTTTDTIKSYTDAGYELVSDNYPSGGTVFTDTAQHYVVNLKQKLVVSSEQKQVNETIQYVYEDGSKAADDYNAPPLNFTRSVTTNQVTGEKTYGDWQAQNGDSFGEVVSPTIKGETADQLKIDAISGITANSADIQKKVVYKRNQGTIDVTYIDETTGQVLTKKDLSGGTDDPSNYTTADDIKSYTDKGYELVSDDYPSGGTVFTDEPQHYVVKLKHGLTESTDKKAVNQVIHYVYEGGGEAATDHNATVDFSRTITTDRVTNDKTYGDWTADNGDSFASVTSPVIDGYTADQLKVSEMTGITADTEDISVTVTYTRNQGTIDITYIDQTTGQTLSKKDLSGGTGDDSGYTTADTIKSYTDKGYELISDDYPEDGTKFADDPQHYIVRLKHGLTEVTENKTVNQVIHYVYEGGGEAATDHNATVVFSQTITTDKVTGEKTYSDWTADNGDSFASVTSPVIDGYTADQLKVSEMTGITVDTEDISVTVTYTRNQGTIDVTYIDETTGKILTTKDLSGGTGDDSGYTTADTIKSYTDKGYELVSNDYPEDGTKFADDPQHYIVRLKHGTVVETENKSVNEVIHYVYDNGDKAADNYKATIVFSRTITTDKVTGEKTYSDWTADNGGRFAAVLSPIIKDYIASQLKVDEMTGITVDTADIERIVVYHKVPAGIIVPPVHPDKPSQPSNNQSKIPTAKAVKDSKPTDVLPSTGDSQKSQIVLTLLGIMAVIISPLALLLRRRKQ”, for which the protein production entry was “failed”. On to “MNDPMGETGFSRESAPEIVFSETDMAAAEQLMHLSEEETVSCSSSTGGDCGGGGGDKIKHEYVSSRIGNELNDGVRGNSILGVEKKRKRTVMKEKKFRSLESIYKGTKEIRD”, for which the protein production result was “failed”.

In the case of “SQSLKPEPFGRRAQAVETNKTLHEMKTRFLLFGETNQGCQIRINHPDTLQECGFNSSLPLVMIIHGWSVDGVLENWIWQMVAALKSQPAQPVNVGLVDWITLAHDHYTIAVRNTRLVGKEVAALLRWLEESVQLSRSHVHLIGYSLGAHVSGFAGSSIGGTHKIGRITGLDAAGPLFEGSAPSNRLSPDDANFVDAIHTFTREHMGLSVGIKQPIGHYDFYPNGGSFQPGCHFLELYRHIAQHGFNAITQTIKCSHERSVHLFIDSLLHAGTQSMAYPCGDMNSFSQGLCLSCKKGRCNTLGYHVRQEPRSKSKRLFLVTRAQSPFKVYHYQLKIQFINQTETPIQTTFTMSLLGTKEKMQKIPITLGKGIASNKTYSFLITLDVDIGELIMIKFKWENSAVWANVWDTVQTIIPWSTGPRHSGLVLKTIRVKAGETQQRMTFCSENTDDLLLRPTQEKIFVKCEIKSKTSKRKIR”, the protein production result is listed as “failed”. The same measure for “MELKVWVDGVQRIVCGVTEVTTCQEVVIALAQAIGRTGRYTLIEKWRDTERHLAPHENPIISLNKWGQYASDVQLILRRTGP”: “not failed”.

For the sequence “MIQARSRRPLSCSLRSSSQNPIATTFLTGGKMDRIVRQILVKLLGGERSVYELIYYQDASLREFFELLNSLRDEGLIEVESGKVRITEKGREVAEKERLKFCGDVECECCEGTGLSINPYFKEILQKYSEIAKDRPETIEVYDQGFISLEGVIRRVEFVYDRGDLNGRIFVVGDDDLFGIAASLTGMPEKVAVVDIDERLINFINRVAEEYSLNVEAFVYDVQQAFPDELKRKFDVFVTDPVETIPGLKLFLSRGVSTLKGVGGAGYFGITTLEASRRKWYEIQRMIHDMGFIITDLRRRFNVYPEDEKNFFRFQEKLPIVRHLQAKVDFNWYNSTLFRIEAVKEPKPIVEGEMIIDEKVYKDDESWATPY”, the protein production entry is on record as “failed”. The same measure for “MDYDQQPIMYDEVELLIQAVDQQPHPLLRLRDKAIIQLGLQGGFRRSELANLKVHYLSFMRDKLKVRLPFSKSNQQGLREWKSLPDSEPFAAYHAVKSWLNESQITDGHLFRSISRDGKTLRPYHVNDNSKPKSTFSRNSGFLNGDDIYRIIKQYCLKAGLPAQYYGAHSLRSGCVTQLHENNKDILYIMARTGHTDPRSLRHYLKPKEDLEHHHHHH”: “failed”. The same measure for “MAEDYKLIDNEEKHRYEFQIDDKIAKIDYIKSNNGEIYLVHTEVPASLGGRGVGSQLAEKTLADIERQGLRLVPLCPFVAGYIHKHPEWKRIVMRGIHIK”: “failed”; for “MERDQHIRIIYKLIIVLLVLLIIYVVVQLADLWVPFVYVLKRLLIPLGLAAIITYLFHPLIEAMHRRGMGRGLAVLLVFGAMIALLVCFAVVGAPYVLQQIEELTTSFPTVMKDVEGTVSKMEWQIQQLPHPFHNQAENWLNHLGKKAGNLLGQMERVIVVLIQSMVLLITVPFLVLYFLKDFDLIERAAWYVTPRKWRPSLKRYVRDVDRSFGRYIRGQLLVALSVAVVSMMALWLIGVPYPILLGGFIGATNIIPYFGAFIGAVPALVFAYFESWPVLLATAIALFLLQQLEGNVLSPLIVGHSLHLHPITIILALLVGVEVGGVIGLILAVPILAVLKVTFIHLRLHVSKVDREV”: “failed”. The same measure for “MSKLIVPQWPQPKGVAACSSTRIGGVSLPPYDSLNLGAHCGDNPDHVEENRKRLFAAGNLPSKPVWLEQVHGKDVLKLTGEPYASKRADASYSNTPGTVCAVMTADCLPVLFCNRAGTEVAAAHAGWRGLCAGVLEETVSCFADNPENILAWLGPAIGPRAFEVGGEVREAFMAVDAKASAAFIQHGDKYLADIYQLARQRLANVGVEQIFGGDRCTYTENETFFSYRRDKTTGRMASFIWLI”: “not failed”. On to “ATGTTGGGCATGATCAGGAACTCACTGTTCGGGAGCGTGGAAACGTGGCCTTGGCAGGTTCTAAGCACCGGGGGCAAGGAAGATGTCTCCTATGAGGAAAGAGCCTGTGAAGGGGGCAAGTTTGCTACTGNGGAAGTGACAGACAAGCCAGTGGATGAGGCTCTCCGGGAAGCGATGCCCAAGATCATGAAGTATGTGGGTGGCACCAATGACAAAGGAGTCGGCATGGGTATGACAGTCCCTGTCTCTTTTGCCGTGTTTCCCAATGAAGATGGCTCCCTACAGAAGAAACTGAAAGTCTGGTTCCGGATTCCGAACCAATTTCAAGGCAGCCCACCGGCCCCCAGTGACGAGAGTGTGAAGATCGAGGAACGGGAGGGCATCACTGTCTATTCCACGCAATTTGGAGGCTATGCCAAGGAAGCAGACTATGTTGCTCATGCCACCCAGCTACGGACCACACTGGAGGGCACACCAGCGACCTACCAGGGTGATGTCTACTACTGTGCCGGATATGACCCTCCCATGAAGCCCTATGGACGCCGTAACGAGGTCTGGCTTGTGAAGGCATGA”, for which the protein production result is on record as “not failed”.

As for “MSTTLLRTIQLNQFSLLGTSLLRRRRSNNFSVRSCGSQTTTTHEAKQSSPTRVAPKNHKSNQLDEILRDYEAVIGIETHVQLSTLTKAFCSCSNNYGSYPNTSICPVCMGLPGALPVLNSKVVEFGVRLGLALNCDLSLKSKFDRKQYFYPDLPKGYQISQFDIPIASGGYVDVDIPLEFGGGHRRFGITRVHMEEDAGKLLHSDTGDYSQVDLNRAGVPLLEIVSEPDMRSGIEAAEYACEMQRIARYLGVSNGNMQEGSLRCDVNISIRPIGQAEFGTKVEIKNLNAFSAISRAIDFEISRQALLYNQGKADQIVTETRLWEEGAQKTVTMRKKEGLADYRYFPEPDLPEVILTQEYVDSIRASLPELPEAKRRRYEAMGLGMQDVLFLANDVSVAEYFDAVIGKGAEVKLAANWIMSDIAAYLKNEKLSINDIKLTPQELAELIAAIKDGTISGKIGKEILFELLAKGGTVKGMIKAKDLVQITDPAEIEKMVIQVVSENPKQLEQYRSGKTKLQGYFAGQVMKMSKGKANPGLLNKILLEKLNAKD”, the protein production entry is “failed”. The same measure for “MFPAQEEADRTVFVGNLEARVREEILYELFLQAGPLTKVTICKDREGKPKSFGFVCFKHPESVSYAIALLNGIRLYGRPINVQYRFGSSRSSEPANQSFESCVKINSHNYRNEEMLVGRSSFPMQYFPINNTSLPQEYFLFQKMQWHVYNPVLQLPYYEMTAPLPNSASVSSSLNHVPDLEAGPSSYKWTHQQPSDSDLYQMTAPLPNSASVSSSLNHVPDLEAGPSSYKWTHQQPSDSDLYQMNKRKRQKQTSDSDSSTDNNRGNECSQKFRKSKKKKRY”: “not failed”. Turning to “MGLPAHHIDAFLDRLRTAHYSEVSLRKKRRVLCAFSGWMKHRNIDLIDLDESVTARFMKRMIDASRDRVQRARPTLRQFLAYLRAEAIVCSPTLGSQSAIAHTYRRYLDYLRQDRGLAKNSLLVYGPFIRDFLDSHSAGDGSLLPDAFDAVTIRNHLLARSKGRSAEYTRLMAVALRSFCHFLFLRGDTARDLAGSVPSVRKWRQSTVPTFLTPEQQEALIASADRSTPTGLRDYAILLLLARLGLRAGEIIEIELDDIHWRSGELVVHGKGQMVEHVPLSSEVGAAIATYLRDGRGASASRRVFLRRLAPRVGLAGPAAIGKIVCQAFARVGFRPACRGAAHLFRHGLATTMIRHGASMAEIAEVLRHRSPDSTAIYAKVAFEDLRGVARSWPTAGGAILEHHHHHH”, the protein production result is reported as “not failed”. The same measure for “MSNEHKASIDGGQWAQCVRERGWLWDVAQGVEVQSAPTLILAHGAGAPMDSGFMNDIAVRLAGHGVNVLRFEFPYMAQRRLDGGKRPPNPAPRLLECWREVHALVRPYVTGVLALGGKSMGGRMASLLADELQADALVCLGYPFYAAGKPEKPRVAHLADLSVPSLIVQGERDALGNRQAVEAYTLAPGIELYWLTAADHDLKPLKASGFSHEQHLESAALKVAAFLKALS”: “failed”; for “MQLWIYGVLIRLVTPAVFVWLWLRGGKDSRYRQNWSERLALGSVDKKQHGCLVIHSVSVGETLAAKRLIEQLLRQEPGQKILITCMTPTARELIQQHFADTVSCRYWPIDSPGAAKRFVRKFKPKAVWVMETELWPQMLNQFSKANIPVALLNARLSARSAAGYRRFHWLMKKVWKQLTLVSVQNKETARRMKVLGVPDSVLFVDGNLKYDIELSVTDIEKALLWRQSCASRHVWLASSSHPGEHELLLEAHKLIQQDLSNSCLIIAPRHPEQFEVVAKMIRESGLKLARRSESNAIPEDCDVFLADSMGEMMLWGQLASASFVGGSIIERGGHNPLEVIAAGSNVMSGRHVFNFPQVYGELAKAGAVQWVNNAGEIKQAVELMQQTAVMKAQHEAAKSVLQTHQGATLRVLKRALEYTLTGSGMIKTEQSPQGLIRYDSDIFETIEDKHFTAQYWQQQKSIAGNSTGRATVWFIQQGDLGLLLRHYYRGGLVGKINKDRFLREPAEKSRAIHEFDLLLKLREIGLPVPRPVAARMEKTAVFSYKADILVEVIPGAVDVFRLLREKKLSAELWQKLGSVIKELHDTGVYHSDLNCHNLMLDDKDKAWIVDFDKCDFRENGDWKEANIQRLLRSLRKEKEKNETFYWKESRDWPELLTGYRR”: “failed”; for “MRAPLPELPAGTRFGAWAIDRLIGAGGMGQVYLGHRADGAYEREVAIKLVAADALDAQGRALFEFECRLLAQMVHPAIAQIHDVGTDAHGQPYLVMEYLRGEPITWWCDEHRLSLHARVLLMLRVGEAVQHAHQKGVIHRDLKPSNVLVSEIDGRPMPGVIDFGIAVDATNPGMTYAHDRGTPGYMSPEQARGAQDVDARSDIYALGAMFYELSCGLAPVAGRDGVPQPPSQRVAAVPADARARICAARATTYQKLHEQLRDGLDAIVLRALEPQPGARYASVSALLDDLHRWLDGYPPRALQASRWLRLRKFTQRHRSGVAAAGLAAIAVVAGLGATLWSLQQAARDAQRAQVTGDFMSSVLSSVDPGVARDLDKTLMLRVMQQASQRAARELADQPDARTQVELTLGRTLIALANFPQAVEHLRIAQTLAQQTAGAGSLPALKAASMLGQALTGDGKPGDAERVLRQGIAQAARGDAQQQAMGNELRAWLAWALREQGRMRDALAESRHAYVAALANASSSADQRIDAGNSYAAMLADNGQLVPAIALQRSLLRERMAMRGPEHPLVVSMRNSLAVFLLMQRDFAGAEAELVPLLRVTRTLYGESAADTLMIEGNLAGALRQQGKVAEAGPYYRRALERARAAFGNDAPVTIAYRSNHAFWLLDDGQVDASLAEQRAALTASERVLGRAHPQTAEILRGMSEAERRLGQTVAARDHARQALQILTGIFGDADAPLRAARQTLASATPPADSREAEATTAVAQR”: “failed”.
